Measurements taken from PMC10141234, “Adjusting Heterodimeric Coiled-Coils (K/E Zipper) to Connect Autophagy-Inducing Peptide with Cell-Penetrating Peptide” (Pharmaceutics, 2023).
Each block holds one substance with its values, some of them ahead of it.

Columns and labels:
[1] = tested on: HeLa cells; assay: Intracellular delivery of K/E hybrids by confocal laser microscopy; format: cell-based; settings: 10 μM equimolar AIP-Kn/En-CPP mixture, 1 h, 37 °C, conclusion from Fam/Tmr signals
Method: HeLa cells were cultured in DMEM supplemented with 10% heat-inactivated FBS in a 5% CO2 incubator at 37 °C. The HeLa cell line has been stocked and propagated in Dr. Masaaki Miyazawa’s laboratory.
AIP-Kn and En-CPP (n = 2, 3, and 4) were dissolved in DMSO at 10 mM each to make a stock peptide solution. The stock solution was diluted to the desired concentration using Opti-MEM. Equal volumes of the diluted AIP-Kn and En-CPP were mixed in a 1.5 mL tube for 1 h with rotation at room temperature to generate hybrids. For single-component controls (AIP-Kn or En-CPP only), equal volumes of the diluted AIP-Kn or En-CPP and Opti-MEM with DMSO, which was added instead of the stock peptide solution, were mixed in a 1.5 mL tube, and the mixture was then treated in a manner similar to that for the hybrid formation. […]
One day before peptide treatment, 1 × 10^5 cells in 2 mL of HeLa cells were seeded on a glass-bottomed dish (Matsunami Glass, Osaka, Japan) and cultured in a 5% CO2 incubator at 37 °C. […] After washing the cells, 2 mL of PBS was added and fluorescence signals from the cells were observed using a confocal laser microscope with a Plan Apo 60× oil-immersion DIC H objective (CLMS; C2si Ready; Nikon, Tokyo, Japan). Data were analyzed using NIS-Elements Advanced research software (Nikon).

[2] = molecular target: E2-CPP (Fam-labelled octaarginine cell-penetrating peptide with two EIAALEK units at its N-terminus); settings: scale: LC3-II/actin ratio
Chain of E2-CPP (Fam-labelled octaarginine cell-penetrating peptide with two EIAALEK units at its N-terminus) (peptide, as listed by the source): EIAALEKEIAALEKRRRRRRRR

[3] = molecular target: E3-CPP (Fam-labelled octaarginine cell-penetrating peptide with three EIAALEK units at its N-terminus); settings: scale: LC3-II/actin ratio
Chain of E3-CPP (Fam-labelled octaarginine cell-penetrating peptide with three EIAALEK units at its N-terminus) (peptide, as listed by the source): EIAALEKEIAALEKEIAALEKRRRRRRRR

[4] = molecular target: E3-CPP (Fam-labelled octaarginine cell-penetrating peptide with three EIAALEK units at its N-terminus); assay: other fluorescence titration; En-CPP (Fam) fixed at 50 nM, AIP-Kn (Tmr) added to Tmr/Fam ratios 0-2.0; PBS pH 7.0, 25 °C; excitation 495 nm, Fam fluorescence at 525 nm quenched by FRET to Tmr; Kd by fit to equation (1), with the saturation intensity Fs taken from AIP-K4/E4-CPP
[5] = molecular target: E4-CPP (Fam-labelled octaarginine cell-penetrating peptide with four EIAALEK units at its N-terminus); settings: scale: LC3-II/actin ratio
Chain of E4-CPP (Fam-labelled octaarginine cell-penetrating peptide with four EIAALEK units at its N-terminus) (peptide, as listed by the source): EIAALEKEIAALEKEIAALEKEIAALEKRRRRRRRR

[6] = molecular target: E4-CPP (Fam-labelled octaarginine cell-penetrating peptide with four EIAALEK units at its N-terminus); assay: other fluorescence titration; En-CPP (Fam) fixed at 50 nM, AIP-Kn (Tmr) added to Tmr/Fam ratios 0-2.0; PBS pH 7.0, 25 °C; excitation 495 nm, Fam fluorescence at 525 nm quenched by FRET to Tmr; Kd by fit to equation (1), with the saturation intensity Fs taken from AIP-K4/E4-CPP

Substance: Fam-(EIAALEK)2-RRRRRRRR [E2-CPP, octaarginine modified with (EIAALEK)2 at its N-terminus, labeled with fluorescein]
intracellular delivery (translocation into cells) [1]: alone translocates across the plasma membrane

autophagy induction in HeLa cells, LC3-II/actin ratio by immunoblot, 10 μM, 3 h, relative to AIP-K3/E3-CPP [2]: 0.08
Substance: AIP-K2 (Tmr-labelled autophagy-inducing peptide with two KIAALKE units at its C-terminus)

autophagy induction in HeLa cells, LC3-II/actin ratio by immunoblot, 10 μM, 3 h, the reference of the ratio [3]: 1
Kd [4]: 20 nM
stoichiometry N [4]: 1
Substance: AIP-K3 (Tmr-labelled autophagy-inducing peptide with three KIAALKE units at its C-terminus)

autophagy induction in HeLa cells, LC3-II/actin ratio by immunoblot, 10 μM, 3 h, relative to AIP-K3/E3-CPP [5]: 0.59
Kd [6]: 2 nM
stoichiometry N [6]: 1
Substance: AIP-K4 (Tmr-labelled autophagy-inducing peptide with four KIAALKE units at its C-terminus)
